Here are results for 18 molecules from patent publication US20240101708A1 (Genentech, published 2024).

In test [1] the target is T1, recombinant human ZNRF3 extracellular domain (human, UniProt Q9ULT6 56-219).
T1 construct: extracellular domain; also called huZNRF3; human ZNRF3 ECD
T1 sequence (looked up): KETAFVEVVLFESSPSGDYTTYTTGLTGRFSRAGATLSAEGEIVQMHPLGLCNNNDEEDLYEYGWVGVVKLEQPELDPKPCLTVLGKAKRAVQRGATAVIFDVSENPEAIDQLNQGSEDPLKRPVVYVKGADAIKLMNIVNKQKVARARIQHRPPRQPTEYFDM
The experiment in a line: SPR Biacore 8K; antibody captured on Protein A; ZNRF3 ECD analyte; 25 C. The protocol:
Antibodies were screened for binding to recombinant human RNF43 and ZNRF3 ECDs using a Biacore® 8 k instrument (GE Life Sciences). Briefly, antibodies diluted to 1 μg/ml in 1×HBSP buffer (Cytiva, BR100368) were captured on a Sensor Chip Protein A (GE Life Sciences) using a flow rate of 10 μl/minute and a contact time of 60 seconds. Binding of recombinant human RNF43 and ZNRF3 extracellular domain to the captured antibodies was analyzed at 25° C. using a single cycle kinetics method with a flow rate of 30 μl/minute, a contact time of 180 seconds and a dissociation time of 600 seconds. The concentration of recombinant human RNF43 and ZNRF3 extracellular domain in the single cycle kinetics were 0, 0.8, 4, 20, and 100 nM. Between cycles, the chip was regenerated using 10 mM Glycine HCl pH 1.5 injected for 30 seconds at 30 μl/minute. Data were evaluated using Biacore 8K Evaluation software (GE Life Sciences). Kinetic constants were obtained using a 1:1 binding model with the parameter RI set to zero. Cell surface ligase antibodies with sub-nanomolar affinities may provide advantages in certain instances, for example, in the degradation efficiency which is correlated with the durability of the ternary complex as shown in FIG. 5D.
For orientation: In SPR one partner is held on a chip, and binding of the other changes the refractive index at the surface.

Test [2] concerns the target T2, recombinant human RNF43 extracellular domain (human, UniProt Q68DV7 24-197).
T2 construct: extracellular domain; also called huRNF43; human RNF43 ECD
T2 sequence (looked up): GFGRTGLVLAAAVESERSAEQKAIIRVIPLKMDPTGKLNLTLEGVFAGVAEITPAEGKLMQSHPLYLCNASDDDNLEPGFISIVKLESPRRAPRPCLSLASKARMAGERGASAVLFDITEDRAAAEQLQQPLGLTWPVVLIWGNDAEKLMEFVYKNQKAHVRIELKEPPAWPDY
The experiment in a line: SPR Biacore 8K; antibody captured on Protein A; RNF43 ECD analyte; 25 C.

B1: ZNRF3-333 (antibody, V domains shown)
VH: QSLEESGGGLVQPEGSLTLTCTASGIDFSARSYMCWVRQAPGKGLEWVACIYTGSSGSTYYANWAKGRFTISKTSSTTVTLRMTSLTAADTASYFCARGAYVGYGFAAYFTLWGPGTLVTVSS
VL: DIVMTQTPASVEAAVGGTVTINCQASQSISSYLAWYQQKPGQPPKLLIYYASNLESGVPSRFKGSGSGTQFTLTISDLECADAATYYCQAYYSSITGWAFGGGTEVVVK
notes: Rabbit clone; VH/VL only
Broadly, the Kd is the constant that tells how readily two partners part at equilibrium. As for B1, the Kd in test [1] was 8.7 nM.

B2: RNF43-16 (antibody, V domains shown)
VH: QSVEESGGRLVTPGTPLTLTCTVSGFFLSSYYMSWVRQAPGKGLEWIGYIYAGSGSTYYASWAKGRFTISKTSTTVDLKITSPTTEDTATYFCVRDINGGDYGMDPWGPGTLVTVSS
VL: DIVMTQTPASVSAAVGGTVTIKCQASESIDSGLAWYQQKPGQRPKLLIYAASNLASGVSSRFKGSGSGTEYSLTISGVQCDDAATYYCQCTYGSVTSNTYGIAFGGGTEVVVK
notes: Rabbit clone; VH/VL only
On to B2, for which the Kd in test [2] worked out at 37.8 nM.

B3: RNF43-128 (antibody, V domains shown)
VH: EVQLQESGPGLVKPSQSLSLTCSVTGFSITSHYKWNWIRKFPRNKLEWMGYIDNSGSTNYIPSLKSRISITRDTSKNQFFLQVNSVTTEDTATYYCARDCLDWGQGVMVTVSS
VL: DVVLTQTPPTLSATIGQSVSISCRSSQSLLHSNGNTYLHWLIQRPGQSPQLLIYLVSRLESGVPNRFSGSGSGTDFSVKISGVEAEDLGIYYCVQDTHTPWTFGGGTKLELK
notes: Rat clone; VH/VL only
On to B3, for which, in test [2], the binding result is listed as “no binding”.

B4: RNF43-21 (antibody, V domains shown)
VH: QSLEESGGDLVKPGASLTLTCTASGFSFSSSYYMCWVRQAPGKGLEWIACIYAGSSGSTYYASWAKGRFTVSKTSSTTVTLQMTSLTAADTATYFCARYTYGSGSDSYFNLWGPGTLVTVSS
VL: AYDMTQTPASVEAAVGGTVTIQCQASQSIGSYLAWYQQKPGQPPKLLIYRASTLSSGVPSRFKGSGSGTQFTLTISDLECADAATYYCQQGYSITNLDNGFGGGTEVVVK
notes: Rabbit clone; VH/VL only
For B4, the Kd in test [2] is 10.3 nM.

B5: ZNRF3-117 (antibody, V domains shown)
VH: EIQLQESGPGLVKPSQSLSLTCSVTGYTITSDYDWSWIRKFPGNKMEWMGYINYSGSTNYNPSLKSRISFTRDTSKNQFFLQLNSITTDDTATYYCARYGPYYGFSDWYFDFWGPGTMVTVSS
VL: DVQMTQSPSYLAASPGESVSISCKASQSISNYLAWYQQKPGKTYRLLIYSGSTLQSGTPSRFSGSGSGTDFTLTIRSLEPEDFGLYYCQQYYEKPLTFGSGTKLEIK
notes: Rat clone; VH/VL only
On to B5, for which the Kd in test [1] is 0.2 nM.

B6: RNF43-6 (antibody, V domains shown)
VH: QSLEESGGRLVTPGTPLTLTCTVSGFSLSAFGMNWVRQAPGKGLEWIGYISAGGSAVYPNWAEGRFTISKASTTVTLKMTSLTTEDTATYFCVRGGYVGSTNSLWGPGTLVTVSS
VL: AAVLTQTPSPVSAAVGGTVSISCQSSKSVHNNNWLAWYQQKPGQPPKLLIYGASTLASGVPSRFKGSGSGTQFTLTISDVQCDDAATYYCSGGYSSIIDNGFGGGTDVVVE
notes: Rabbit clone; VH/VL only
In the case of B6, in test [2], the Kd was determined as 10.3 nM.

B7: ZNRF3-101 (antibody, V domains shown)
VH: QVQLKESGPGLVQPTQTLSLTCTVSGFSLTSSTVSWVRQPPGKGLEWIAAISSAENTYYNSGLKSRLSISRDTSKSQVFLKMNSLQTEDTAMYFCAGGRILETLFDSWGQGVMVTVSS
VL: DIVLTQSPALAVSLGQRATISCKTNQNVDFYGKTYMHWYQQKRGQQPKLLIYLASNLASGIPARFSGRGSGTDFTLTIDPVATDDTATYYCQQTRSLPPTFGAGTKLELK
notes: Rat clone; VH/VL only
As to B7, the Kd in test [1] came out at 0.07 nM.

B8: RNF43-11 (antibody, V domains shown)
VH: QEQLVESGGGLVQPEGSLTLTCKASGFDFSSNVMCWVRQAPGKGLEWIGCIYTGSSGSTYYASWAKGRFTITRSTSLNTVTLQMTSLTAADTATYFCARYVSGGEYYNLWGPGTLVTVSS
VL: ALVMTQTPASVEAAVGGTVTINCQASESISNWLAWYQQKPGQPPKLLIYKASTLASGVSSRFKGSGSGTQFTLTISDLECADAATYYCQQGSSWINIEDVFGGGTEVVVK
notes: Rabbit clone; VH/VL only
Take B8: the Kd in test [2] was determined as 27.7 nM.

B9: RNF43-20 (antibody, V domains shown)
VH: REQLVESGGGLVQPEGSLTLTCKASGFDFSSNVMCWVRQAPGKGLEWIGCIYTGSGSTAYASWAKGRFTITRSTSLNTVTLQMTSLTAADTATYFCARYVSGGEYYNLWGPGTLVTVSS
VL: ALVMTQTPASVEAAVGGTVTIKCQASQSISSYLNWYQQKPGQPPKLLIYKASTLASGVSSRFKGSGSGTQFTLTISDLECADAATYYCQQGSSWNSIENIFGGGTEVVVK
notes: Rabbit clone; VH/VL only
Take B9: in test [2], the binding result was “no binding”.

B10: ZNRF3-163 (antibody, V domains shown)
VH: EVQLEESGGGLVQPGRSMKFSCAASGFTFSNYYMAWVRQAPSKGLEWVASISTGGGDVYYRDSVKGRFTISRDNAKSTLYLQMDSLRSEDTATYYCARHSGGRIRARGHYFDYWGQGVMVTVSS
VL: DIQMTQSPASLSASLGETVSIECLASEDISNDLAWYQQKSGKSPQVLIYGVSRLQDGVPSRFSGSGSGTRYSLKISGMQPEDEADYFCQQSYKYPYTFGAGTKLELK
notes: Rat clone; VH/VL only
As for B10, the Kd in test [1] was found to be 0.61 nM.

B11: RNF43-22 (antibody, V domains shown)
VH: QEQLEESGGDLVKPGASLTLTCTASGFSVSNSYYMCWVRQAPGKGLEWIACINTGSSGSTYYASWAKGRFTISKTSSTTVTLQMTTLTAADTATYFCARGYAGYAGYGQFNLWGPGTLVTVSS
VL: AYDMTQTPASVEVAVGGTVTIKCQASQSISSYLAWYQQKPGQRPKVLIYDVSKLASGVPSRFKGSGSGTQFTLTISGVECADAATYYCQQGYSMSNVDNTFGGGTEVVVK
notes: Rabbit clone; VH/VL only
Consider B11, for which, in test [2], the Kd worked out at 0.5 nM.

B12: RNF43-15 (antibody, V domains shown)
VH: QEQLEESGGDLVKPGASLTLTCTASRFSFSNDDVICWVRQAPGKGLEWIGCIATINGNTAYATWAKGRFTSSKTSSTTVTLQMTRLTAADTATYFCARWDTGSEHVTLWGPGTLVTVSS
VL: AYDMTQTPASVEVAVGGTVTIKCQASQSISSYLAWYQQKPGQPPKPLIYEASKLASGVPSRFSGSGSGTQFTLTISGVQCADAATYYCQQGASWSNVDNVFGGGTEVVVK
notes: Rabbit clone; VH/VL only
B12: in test [2], the Kd worked out at 8 nM.

B13: RNF43-23 (antibody, V domains shown)
VH: QEQVVESGGGLVQPEGSLTLTCKGSGFDFSGNVLCWVRQAPGKGLEWIGCIATGIGSTAYASWAKGRFTITRGTSLNTVDLKMTSLTAADTATYFCARYVSGSEYYNFWGPGTLVTVSS
VL: AYDMTQTPASVEVAVGGTVTIKCQASQSISSFLAWYQQKPGQPPMLLIYKASTLASGVPSRFKGSGSGTQFTLTISGVECADAATYYCQQGYSWNGVDNTFGGGTEVVVK
notes: Rabbit clone; VH/VL only
B13: in test [2], the Kd came out at 85 nM.

B14: RNF43-17 (antibody, V domains shown)
V domain 1: QSVEESGGRLVTPGTPLTLTCTGSGFSLSNYAMGWVRQAPGKGLEYIGIIYASGSTWYASWAKGRFTISKTSTTVDLKITSPATEDTATYFCCRDATTTYDRLDLWGQGTLITVSS
V domain 2: AFELTQTPSSVEAAVGGTVTIKCQASQSISKWLAWYQQKPGQPPKLLIYRASTLPSGVPSRFKGSGSGTEFTLTISGVECADAATYYCQQGYSVTNLDEAFGGGTEVVVK
notes: Rabbit clone; VH/VL only
For B14, the Kd in test [2] was determined as 6.7 nM.

B15: RNF43-5 (antibody, V domains shown)
VH: QSVEESGGRLVTPGTPLTLTCTVSGFSLNTYAMGWVRQAPGKGLEWIGTIGSSGSTYYATWAKGRFTVSKTSTTVDLKITSPTTEDTATYFCVRGADGLNYYPIWGPGTLVTVSL
VL: AQVLTQTPSSVSAAVGGTVTINCQASQSVYNNKNLAWYQQKPGQPPKLLIYDASDLASGVSSRFKGSGSGTQFTLTISGVQCDDAATYYCQGEFNCDKGDCNAFGGGTEVVVK
notes: Rabbit clone; VH/VL only
As to B15, the Kd in test [2] is 1.1 nM.

B16: ZNRF3-171 (antibody, V domains shown)
VH: QVQLHQSGTELARPGTSVKLSCKASGYTFSRFYINWVKKRPGQGLEWIGYIDPGNGGTFHSEKFKDKASLTADTSSSTAYMVLGSLAPEDSAFYFCVRGYYSSYDWFAYWGQGTLVTVSS
VL: DIQLTQSPSSMSASLGDRVSLTCQSSQGIGNYLSWYQHKPGEPPKPILYYATNLADGVPSRFSGSRSGSDYSLTISSLESEDTAIYYCLQYDEYPYTFGPGTKLELR
notes: Rat clone; VH/VL only
In the case of B16, in test [1], the Kd amounted to 1.01 nM.

B17: RNF43-14 (antibody, V domains shown)
VH: QSVEESGGRLVTPGTPLTLTCTVSGIDLSSYAMGWVRQAPGKGLEYIGFIYASGSTYYASWAKGRFTISKTSTTVDLKITSPTTEDTATYFCARDSSETINYFNIWGPGTLVTVSL
VL: NIVMTQTPSPVSGAVGGTVTIKCQASQSISNWLAWYQQKPGQPPKVLIYRASTLASGVSSRFKGSGSGTEFTLTISDLECADAATYYCQQGYYISYLDNAFGGGTEVVVK
notes: Rabbit clone; VH/VL only
For B17, the Kd in test [2] is 0.8 nM.

B18: RNF43-2 (antibody, V domains shown)
VH: QSLEESGGDLVKPGASLTLTCTASGFSFSSSYYMCWVRQAPGKGLELIGCGFTGRHYTYYASWAKGRFTISKSSSTTVTLQMTSLTAADTATYFCARKSGSDYDYFDLWGPGTLVTVSS
VL: AYDMTQTPASVEAVVGGTVTIKCQASQSINSWLSWYQQKPGQRPKLLIYRASTLASGVSSRFKGSGSGTEFTLTISDLECADAATYYCQQGYVSSNINNVFGGGTEVVVK
notes: Rabbit clone; VH/VL only
As to B18, in test [2], the binding result is given as “no binding”.
